B1: His-Cdc45 (natural protein, human, UniProt O75419 1-566, looked up)
chain: MFVSDFRKEFYEVVQSQRVLLFVASDVDALCACKILQALFQCDHVQYTLVPVSGWQELETAFLEHKEQFHYFILINCGANVDLLDILQPDEDTIFFVCDTHRPVNVVNVYNDTQIKLLIKQDDDLEVPAYEDIFRDEEEDEEHSGNDSDGSEPSEKRTRLEEEIVEQTMRRRQRREWEARRRDILFDYEQYEYHGTSSAMVMFELAWMLSKDLNDMLWWAIVGLTDQWVQDKITQMKYVTDVGVLQRHVSRHNHRNEDEENTLSVDCTRISFEYDLRLVLYQHWSLHDSLCNTSYTAARFKLWSVHGQKRLQEFLADMGLPLKQVKQKFQAMDISLKENLREMIEESANKFGMKDMRVQTFSIHFGFKHKFLASDVVFATMSLMESPEKDGSGTDHFIQALDSLSRSNLDKLYHGLELAKKQLRATQQTIASCLCTNLVISQGPFLYCSLMEGTPDVMLFSRPASLSLLSKHLLKSFVCSTKNRRCKLLPLVMAAPLSMEHGTVTVVGIPPETDSSDRKNFFGRAFEKAAESTSSRMLHNHFDLSVIELKAEDRSKFLDALISLLS
B2: GST-tagged Cdc45N (1-303) (domain or fragment, human, UniProt O75419 1-303, looked up)
chain: MFVSDFRKEFYEVVQSQRVLLFVASDVDALCACKILQALFQCDHVQYTLVPVSGWQELETAFLEHKEQFHYFILINCGANVDLLDILQPDEDTIFFVCDTHRPVNVVNVYNDTQIKLLIKQDDDLEVPAYEDIFRDEEEDEEHSGNDSDGSEPSEKRTRLEEEIVEQTMRRRQRREWEARRRDILFDYEQYEYHGTSSAMVMFELAWMLSKDLNDMLWWAIVGLTDQWVQDKITQMKYVTDVGVLQRHVSRHNHRNEDEENTLSVDCTRISFEYDLRLVLYQHWSLHDSLCNTSYTAARFKLW

Key:
[1] = biological target: T1, human DNA helicase B (human, UniProt Q8NG08 1-1087); experiment: co-IP
[2] = biological target: T1, human DNA helicase B; experiment: pull-down
[3] = biological target: HDHB N-terminus (aa 1-393) (human, UniProt Q8NG08 1-393); experiment: pull-down
[4] = biological target: HDHB helicase domain (aa 394-958) (human, UniProt Q8NG08 394-958); experiment: pull-down
Sequence of HDHB helicase domain (aa 394-958) (Q8NG08 394-958): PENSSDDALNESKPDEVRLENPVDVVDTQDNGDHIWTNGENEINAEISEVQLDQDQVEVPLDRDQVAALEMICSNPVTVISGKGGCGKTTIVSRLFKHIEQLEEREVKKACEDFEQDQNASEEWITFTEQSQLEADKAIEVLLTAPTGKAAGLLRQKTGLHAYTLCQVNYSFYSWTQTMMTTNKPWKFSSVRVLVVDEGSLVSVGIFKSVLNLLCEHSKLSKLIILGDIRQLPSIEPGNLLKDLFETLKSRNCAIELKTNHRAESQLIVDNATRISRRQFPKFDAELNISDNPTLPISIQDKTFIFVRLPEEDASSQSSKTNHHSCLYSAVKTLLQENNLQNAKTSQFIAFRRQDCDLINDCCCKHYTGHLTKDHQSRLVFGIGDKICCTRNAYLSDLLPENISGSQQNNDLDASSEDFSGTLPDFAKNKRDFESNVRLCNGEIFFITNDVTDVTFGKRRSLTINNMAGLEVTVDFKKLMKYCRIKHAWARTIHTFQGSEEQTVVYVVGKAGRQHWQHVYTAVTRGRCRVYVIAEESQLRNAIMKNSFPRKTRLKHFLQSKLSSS

T1 sequence (Q8NG08 whole entry): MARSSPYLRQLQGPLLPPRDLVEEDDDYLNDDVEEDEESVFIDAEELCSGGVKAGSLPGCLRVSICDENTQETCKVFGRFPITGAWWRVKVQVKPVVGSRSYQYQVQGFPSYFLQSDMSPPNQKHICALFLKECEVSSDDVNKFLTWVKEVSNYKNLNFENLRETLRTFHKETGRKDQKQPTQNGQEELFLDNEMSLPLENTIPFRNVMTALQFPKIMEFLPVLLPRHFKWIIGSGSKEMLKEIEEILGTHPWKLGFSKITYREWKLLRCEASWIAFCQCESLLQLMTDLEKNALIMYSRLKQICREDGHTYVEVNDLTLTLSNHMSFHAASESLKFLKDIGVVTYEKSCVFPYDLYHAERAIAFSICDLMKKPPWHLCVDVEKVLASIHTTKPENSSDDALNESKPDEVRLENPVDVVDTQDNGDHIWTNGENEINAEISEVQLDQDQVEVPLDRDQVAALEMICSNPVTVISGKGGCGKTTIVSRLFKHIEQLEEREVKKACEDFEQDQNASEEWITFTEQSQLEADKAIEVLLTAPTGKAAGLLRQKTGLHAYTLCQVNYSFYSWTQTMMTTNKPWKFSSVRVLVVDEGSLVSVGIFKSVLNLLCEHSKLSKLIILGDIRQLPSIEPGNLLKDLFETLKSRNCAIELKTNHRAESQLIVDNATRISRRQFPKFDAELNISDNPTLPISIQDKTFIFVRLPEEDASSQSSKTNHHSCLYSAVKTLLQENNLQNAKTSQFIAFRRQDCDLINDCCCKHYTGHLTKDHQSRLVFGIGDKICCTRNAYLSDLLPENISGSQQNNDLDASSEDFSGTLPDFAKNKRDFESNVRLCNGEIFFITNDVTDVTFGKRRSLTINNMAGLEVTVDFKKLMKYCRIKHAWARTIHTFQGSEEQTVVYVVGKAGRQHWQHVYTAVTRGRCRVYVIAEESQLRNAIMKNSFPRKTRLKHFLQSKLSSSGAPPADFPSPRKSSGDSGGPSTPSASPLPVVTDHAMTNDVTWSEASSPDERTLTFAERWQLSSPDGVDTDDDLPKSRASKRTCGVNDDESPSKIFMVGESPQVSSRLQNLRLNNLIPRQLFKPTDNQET
Sequence of HDHB N-terminus (aa 1-393) (Q8NG08 1-393): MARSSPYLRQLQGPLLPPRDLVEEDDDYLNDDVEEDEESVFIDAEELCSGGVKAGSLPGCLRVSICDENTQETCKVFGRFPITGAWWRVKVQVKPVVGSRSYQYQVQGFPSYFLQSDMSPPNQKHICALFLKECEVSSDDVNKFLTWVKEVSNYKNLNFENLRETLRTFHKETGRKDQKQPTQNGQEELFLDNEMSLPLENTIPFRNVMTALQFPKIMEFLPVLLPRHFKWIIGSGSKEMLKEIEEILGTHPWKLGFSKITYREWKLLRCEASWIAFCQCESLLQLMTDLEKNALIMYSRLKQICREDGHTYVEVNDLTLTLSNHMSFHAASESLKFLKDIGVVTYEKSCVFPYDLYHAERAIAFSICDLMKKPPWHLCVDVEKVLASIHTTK

| Binder | binding result [1] | binding result [2] | binding result [3] | binding result [4] |
| --- | --- | --- | --- | --- |
| B1 | binds | – | – | – |
| B2 | – | binds | binds | binds |

From article PMC4439256 (Experimental cell research, 2015)
